Assay results as given in paper PMC5570508 (2017).

B1: PfEMP1 ATS of variant PFF0845c, fluorescently labeled (H159C) (domain or fragment)
chain: KKKTKSTIDLLRVINIPKGDYGIPTMKSKNRYVPYKSGQYNGKKYIYMEGDESDDYTYIGDISSSDITSSESEYEDIDINNIYPYKSPKYKTLIDVVLEPSKRDTFNTQSDIPSDTSTNKFTDNEWNQLKQDFISNISQNSQMDLPKNNISGNIQMDTCPHVNILDDSMQEKPFITSIHDRDLHNGEEVTYNINLDDHKNMNFSTNHDNIPPKNDQNDLYTGIDLINDSISGNHNVNIYDELLKRKENELFGTNHTKHTTTNIVAKQTHNDPIVNQINLFHKWLDRHRNMCEQWDKNKKEELLDKLNEEWNKENKNNSNVTDTNGENNITRVLNSDVSIQIDMNSKPI
modifications: fluorescein (5-FAM; fluorescein-5-maleimide) on the introduced cysteine C159
B2: spectrin α chain domain 17 (domain or fragment)
chain: AHHEKLKEAYALFQFFQDLDDEESWIEEKLIRVSSQDYGRDLQGVQNLLKKHKRLEGELVAHEPAIQNVLDMAEKLKDKAAVGQEEIQLRLAQFVEHWEKLKELAKARGLKLEESLEYLQFMQNA

Tests used:
α17 Q1717A = experiment: FP
α17 Y1713A = experiment: FP
α17 Q1720A = experiment: FP
α17 F1716A = experiment: FP
α17 L1709A = experiment: FP
α17 F1718A = experiment: FP
α17 D1723K = experiment: FP
α17 D1722K = experiment: FP
[1] = biological target: PfEMP1 ATS-Core of variant PFF0845c (P. falciparum); experiment: NMR; 50 mM NaCl, 25°C

Binder	Kd (α17 Q1717A) [µM]	Kd (α17 Y1713A) [µM]	Kd (α17 Q1720A) [µM]	Kd (α17 F1716A) [µM]	Kd (α17 L1709A) [µM]	Kd (α17 F1718A) [µM]	Kd (α17 D1723K) [µM]	Kd (α17 D1722K) [µM]	Kd [1] [µM]
B1	28	63	41	300	140	63	35	60	
B2									350
